The values that follow come from PMC7788559.

In the series the target is MRN (MRE11-RAD50-NBS1) wild type (Homo sapiens, UniProt P49959;Q92878;O60934 1-708;1-1312;1-754). Description: pull-down, immunoblot. In general terms: A western blot detects proteins with antibodies after separation by electrophoresis.
MRN (MRE11-RAD50-NBS1) wild type, sequence (P49959 whole entry, chain 1 of 3): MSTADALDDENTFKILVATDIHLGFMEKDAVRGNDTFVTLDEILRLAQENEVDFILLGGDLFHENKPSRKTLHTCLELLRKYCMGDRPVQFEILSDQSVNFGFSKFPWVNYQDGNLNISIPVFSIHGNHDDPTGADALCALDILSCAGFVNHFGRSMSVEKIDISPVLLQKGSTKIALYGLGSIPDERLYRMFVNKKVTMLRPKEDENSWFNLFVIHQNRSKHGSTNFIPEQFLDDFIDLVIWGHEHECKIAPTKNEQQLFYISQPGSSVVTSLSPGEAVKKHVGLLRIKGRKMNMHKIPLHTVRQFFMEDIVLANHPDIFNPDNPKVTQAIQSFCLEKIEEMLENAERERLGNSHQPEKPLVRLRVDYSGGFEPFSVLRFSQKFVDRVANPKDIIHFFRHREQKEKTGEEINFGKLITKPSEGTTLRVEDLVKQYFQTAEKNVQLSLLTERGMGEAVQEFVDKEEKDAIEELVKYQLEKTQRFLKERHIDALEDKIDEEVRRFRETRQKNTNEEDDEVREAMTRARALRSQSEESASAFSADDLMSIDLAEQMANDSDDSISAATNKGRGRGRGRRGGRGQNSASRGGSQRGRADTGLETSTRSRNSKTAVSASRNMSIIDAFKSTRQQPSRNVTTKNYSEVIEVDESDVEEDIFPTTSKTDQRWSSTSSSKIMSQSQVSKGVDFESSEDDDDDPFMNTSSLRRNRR
MRN (MRE11-RAD50-NBS1) wild type, sequence (Q92878 whole entry, chain 2 of 3): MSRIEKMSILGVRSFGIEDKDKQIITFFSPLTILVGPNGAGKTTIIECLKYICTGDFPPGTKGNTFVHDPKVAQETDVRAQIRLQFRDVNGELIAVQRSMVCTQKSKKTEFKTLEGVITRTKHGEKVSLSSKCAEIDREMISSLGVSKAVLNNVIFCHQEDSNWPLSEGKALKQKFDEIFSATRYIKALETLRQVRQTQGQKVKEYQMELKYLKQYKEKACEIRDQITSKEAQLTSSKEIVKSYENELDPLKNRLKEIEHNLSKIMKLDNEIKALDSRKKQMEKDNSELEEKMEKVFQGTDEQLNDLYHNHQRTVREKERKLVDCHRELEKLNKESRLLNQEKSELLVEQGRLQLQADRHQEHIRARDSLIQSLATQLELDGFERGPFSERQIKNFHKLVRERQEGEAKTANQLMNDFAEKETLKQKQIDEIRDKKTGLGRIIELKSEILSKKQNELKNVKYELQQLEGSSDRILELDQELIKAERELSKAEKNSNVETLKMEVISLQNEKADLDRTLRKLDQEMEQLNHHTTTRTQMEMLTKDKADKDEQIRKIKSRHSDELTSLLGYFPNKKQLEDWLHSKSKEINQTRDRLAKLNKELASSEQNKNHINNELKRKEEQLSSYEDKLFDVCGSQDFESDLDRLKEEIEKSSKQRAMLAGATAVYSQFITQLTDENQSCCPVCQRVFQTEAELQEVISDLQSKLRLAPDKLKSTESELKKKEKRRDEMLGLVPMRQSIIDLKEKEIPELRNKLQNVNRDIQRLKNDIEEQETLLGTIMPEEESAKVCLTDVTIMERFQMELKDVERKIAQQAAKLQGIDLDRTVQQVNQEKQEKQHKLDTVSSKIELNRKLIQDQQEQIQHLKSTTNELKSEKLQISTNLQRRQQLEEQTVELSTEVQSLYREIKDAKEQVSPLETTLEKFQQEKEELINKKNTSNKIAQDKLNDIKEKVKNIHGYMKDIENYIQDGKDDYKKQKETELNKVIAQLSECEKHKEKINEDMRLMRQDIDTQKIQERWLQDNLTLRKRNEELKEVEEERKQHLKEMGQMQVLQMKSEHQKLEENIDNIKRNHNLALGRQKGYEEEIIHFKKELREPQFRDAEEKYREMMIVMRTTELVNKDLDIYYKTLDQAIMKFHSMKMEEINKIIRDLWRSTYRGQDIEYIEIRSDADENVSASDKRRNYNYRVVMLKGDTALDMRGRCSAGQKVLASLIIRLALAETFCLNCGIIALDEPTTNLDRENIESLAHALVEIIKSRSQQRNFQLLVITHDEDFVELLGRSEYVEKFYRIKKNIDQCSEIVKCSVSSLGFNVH
MRN (MRE11-RAD50-NBS1) wild type, sequence (O60934 whole entry, chain 3 of 3): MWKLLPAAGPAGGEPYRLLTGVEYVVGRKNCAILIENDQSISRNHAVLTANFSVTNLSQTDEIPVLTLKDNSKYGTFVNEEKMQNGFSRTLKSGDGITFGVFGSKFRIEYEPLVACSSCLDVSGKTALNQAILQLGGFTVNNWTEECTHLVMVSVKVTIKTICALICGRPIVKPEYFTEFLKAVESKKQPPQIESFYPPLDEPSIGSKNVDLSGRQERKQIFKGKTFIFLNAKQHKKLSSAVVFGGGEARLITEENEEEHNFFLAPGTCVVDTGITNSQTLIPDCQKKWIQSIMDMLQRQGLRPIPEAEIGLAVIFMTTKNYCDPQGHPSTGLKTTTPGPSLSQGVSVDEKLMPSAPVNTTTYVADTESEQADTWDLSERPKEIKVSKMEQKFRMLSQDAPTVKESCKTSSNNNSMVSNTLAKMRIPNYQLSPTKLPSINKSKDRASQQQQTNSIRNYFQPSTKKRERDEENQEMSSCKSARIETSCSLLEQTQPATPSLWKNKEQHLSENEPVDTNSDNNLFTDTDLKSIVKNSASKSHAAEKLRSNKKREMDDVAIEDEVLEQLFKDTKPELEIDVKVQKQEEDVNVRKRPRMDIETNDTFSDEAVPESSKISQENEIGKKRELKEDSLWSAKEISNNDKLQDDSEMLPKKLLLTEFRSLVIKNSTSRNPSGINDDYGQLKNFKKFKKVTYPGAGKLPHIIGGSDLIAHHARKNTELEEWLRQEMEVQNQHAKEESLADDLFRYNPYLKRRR

B1: Sj60mer blunt dsDNA (dsDNA)
DNA 1: TTGTAAAACGACGGCCAGTGAATTCATCATCAATAATATACCTTATTTTGGGATCTATGC
DNA 2: GCATAGATCCCAAAATAAGGTATATTATTGATGATGAATTCACTGGCCGTCGTTTTACAA
Regarding B1, the binding result is given as “binds”.
